# In patent US20120294860A1 (TORAY INDUSTRIES, published 2012):
# T1: human CAPRIN-1 protein expressed on the surface of human cancer cells (human, UniProt Q14444 2-709)
# T1 sequence: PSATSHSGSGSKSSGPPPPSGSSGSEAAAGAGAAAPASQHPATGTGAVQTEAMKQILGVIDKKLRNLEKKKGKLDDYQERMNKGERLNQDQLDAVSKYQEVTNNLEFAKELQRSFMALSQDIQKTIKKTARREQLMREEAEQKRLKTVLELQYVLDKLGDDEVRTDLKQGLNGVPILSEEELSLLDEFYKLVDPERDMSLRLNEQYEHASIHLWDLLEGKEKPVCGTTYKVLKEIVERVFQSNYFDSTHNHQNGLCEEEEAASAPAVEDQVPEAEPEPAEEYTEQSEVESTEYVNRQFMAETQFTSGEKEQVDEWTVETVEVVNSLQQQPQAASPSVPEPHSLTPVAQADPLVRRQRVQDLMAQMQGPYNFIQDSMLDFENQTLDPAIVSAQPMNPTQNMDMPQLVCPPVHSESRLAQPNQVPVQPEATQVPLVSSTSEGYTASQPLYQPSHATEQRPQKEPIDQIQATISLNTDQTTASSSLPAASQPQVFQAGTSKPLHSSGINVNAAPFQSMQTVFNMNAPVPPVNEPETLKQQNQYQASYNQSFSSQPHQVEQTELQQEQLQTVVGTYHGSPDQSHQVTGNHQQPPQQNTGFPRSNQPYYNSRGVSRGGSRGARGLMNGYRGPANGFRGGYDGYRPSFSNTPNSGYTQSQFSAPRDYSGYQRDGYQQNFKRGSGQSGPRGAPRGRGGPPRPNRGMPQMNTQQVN
# B1: anti-CAPRIN-1 monoclonal antibody #7 (antibody, V domains shown)
# VH: LQESGAELARPGASVKLSCKASGYTFTSYWMQWVKQRPGQGLEWIGAIYPGDGDTRYTQKFKGKATLTADKSSSTAYMQLSSLASEDSAVYYCARGEYGNYFAYWGQGTTVTVSS
# VL: TSDASLGERVTITCKASQDINSYLSWFQQKPGKSPKTLIYRANRLVDGVPSRFSGSGSGQDYSLTISSLEYEDMGIYYCLQYDEFPLTFGGGTKLEIKQ
# B2: anti-CAPRIN-1 monoclonal antibody #1 (antibody, V domains shown)
# VH: EVQLHQFGAELVKPGASVKISCKASGYTFTDYNMDWVKQSHGKSLEWIGDINPNYDSTSYNQKFKGKATLTVDKSSSTAYMELRSLTSEDTAVYYCARSRSYDYEGFAYWGQGTLVTVSA
# VL: DIQMTQSPASLSASVGETVTITCRASGNIHNYLAWYQQKQGKSPQLLVYNAKTLADGVPSRFSGSGSGTQYSLKINSLQPEDFGSYYCQHFWSTLTFGAGTKLELKR
# B3: anti-CAPRIN-1 monoclonal antibody #3 (antibody, V domains shown)
# VH: B2 VH
# VL: DIQLTQSPASLSASVGETVTITCRASGNIHNYLAWYQQKQGKSPQLLVYNAKTLADGVPSRFSGSGSGTQYSLKINSLQPEDFGSYYCQHFWSTLTFGGGTKLEIK
# B4: anti-CAPRIN-1 monoclonal antibody #4 (antibody, V domains shown)
# VH: B2 VH
# VL: SGDRVSLSCRASQSISNYLHWYQQKSHESPRLLIKYASQSISGIPSRFSGSGSGTDFTLSINSVETEDFGMYFCQQSNSWPYTFGAGTKLEIKQ
# Molecular target: T1, human CAPRIN-1 protein expressed on the …
# Assay: cell-based or functional assay
ADCC activity against MDA-MB-157,CDC activity against MDA-MB-231V,Binder
≥ 20%,≥ 30%,B1
≥ 20%,≥ 30%,B2
≥ 20%,≥ 30%,B3
≥ 20%,≥ 30%,B4
